The subject of test [1] is human hair germinal matrix cells. The experiment in a line: Cell proliferation of human hair germinal matrix cells, CCK-8 (Example 10). In kind it is cell-based. The conditions noted are these: HAPLN1 25 ng/mL and/or HA 25 μg/mL; TGF-β2 2 ng/mL, 23 hours. Here is the method:
Human hair germinal matrix cells were dispensed into a poly-D-lysine 96-well plate at a concentration of 2.0×10^4 per well and cultured for 24 hours. After 24 hours, the medium was removed and replaced with a new serum-free medium. HAPLN1 was treated with 25 ng/mL and HA with 25 μg/mL, incubated for 1 hour, and then stimulated with TGF-β2 (2 ng/mL) for 23 hours. CCK-8 (Enzo Biochem, NY, USA) was treated and incubated at 37° C. for 1 hour.

A further test relates to p-Smad2. Nature of the test: p-Smad2 in human hair germinal matrix cells stimulated with TGF-β2 (Western blotting). In kind it is cell-based. To be noted: HAPLN1 25 ng/mL and/or HA 25 μg/mL; TGF-β2 2 ng/mL, 1 hour. Here is the method:
(§1) Human hair germinal matrix cells were dispensed into a poly-D-lysine 6-well plate at a concentration of 5.0×10^4 per well and cultured for 24 hours. After 24 hours, the medium was removed and replaced with a new serum-free medium. HAPLN1 was treated with 25 ng/mL and HA with 25 μg/mL, incubated for 23 hours, and then stimulated with TGF-β2 (2 ng/mL) for 1 hour. After collecting cells, a lysis buffer (25 mM Tris-HCl, 1 mM EDTA, 0.1% Triton-X100, phosphatase inhibitor, and protease inhibitor) was added, and all the cells were broken through sonication. p-ERK1/2, p-Smad2, p-MEK1/2, and p-c-Raf in the sample were measured using Western blotting. Optical densities of p-ERK1/2, p-Smad2, p-MEK1/2, and p-c-Raf were compared to those of ERK1/2, Smad2/3, MEK1, and c-Raf using a densitometer. Here, ERK1/2, Smad2/3, MEK1, and c-Raf were used as loading controls.
(In western blotting, separated proteins are transferred to a membrane and probed.)

For test [2], the system named is TβRII. The experiment in a line: TβRII protein in human hair germinal matrix cells treated with HAPLN1 by concentration (Western blotting). The conditions noted are these: 20 ng/mL of HAPLN1, 24 hours, serum-free medium. The format is cell-based. As to the method:
HAPLN1 was treated on human hair germinal matrix cells by concentration. Specifically, human hair germinal matrix cells (HHGMC) were dispensed into a poly-D-lysine 6-well plate at 5.0×10^4 per well and cultured for 24 hours. After 24 hours, the medium was removed and replaced with a new serum-free medium. HAPLN1 was treated with 0, 5, 10, 20 ng/mL and incubated for 24 hours. After collecting cells, a lysis buffer (25 mM Tris-HCl, 1 mM EDTA, 0.1% Triton-X100, phosphatase inhibitor, and protease inhibitor) was added, and all the cells were broken through sonication. TβRII in the sample was measured using Western blotting. The optical density of TβRII was compared to that of GAPDH using a densitometer (that is, TβRII optical concentration GAPDH optical concentration). Here, GAPDH was used as a loading control.

Another test concerns TβRI. Nature of the test: TβRI protein in human hair germinal matrix cells treated with HAPLN1 and/or HA, then TGF-β2 (Western blotting). The conditions noted are these: HAPLN1 25 ng/mL; TGF-β2 2 ng/mL. In kind it is cell-based. As to the method:
Human hair germinal matrix cells were dispensed into a poly-D-lysine 6-well plate at a concentration of 5.0×10^4 per well and cultured for 24 hours. After 24 hours, the medium was removed and replaced with a new serum-free medium. HAPLN1 was treated with 25 ng/mL, HA was treated with 25 μg/mL, and after 1 hour, TGF-β2 (2 ng/mL) was treated. After 23 hours, cells were collected, a lysis buffer (25 mM Tris-HCl, 1 mM EDTA, 0.1% Triton-X100, phosphatase inhibitor, and protease inhibitor) was added, and all the cells were broken through sonication. TβRI and TβRII in the sample were measured using Western blotting. The optical density of TβRII was compared to that of GAPDH using a densitometer.

The test system of another test is cell membrane TβRII. The experiment in a line: Cell membrane TβRII protein (biotin labelling, immunoprecipitation, Western blotting). The conditions noted are these: HAPLN1 25 ng/mL and/or HA 25 μg/mL; TGF-β2 2 ng/mL. In kind it is cell-based, human. Here is the method: All proteins present in the cell membrane were labeled with biotin, and immunoprecipitation was performed with a biotin antibody to isolate only the cell membrane protein. In order to confirm changes in the ratio of TβRII among cell membrane proteins, Western blotting was performed. The specific experimental method will now be described.
Human hair germinal matrix cells were dispensed into a poly-D-lysine 100 mm dish at a concentration of 2.7×10^6 and cultured for 24 hours. After 24 hours, the medium was removed and replaced with a new serum-free medium. HAPLN1 was treated with 25 ng/mL and HA with 25 μg/mL, and after 1 hour, TGF-β2 (2 ng/mL) was treated. To label biotin after 23 hours, EZ-Link™ Sulfo-NHS-LC-Biotin (Thermo Fisher Scientific, MA, USA) was treated at a concentration of 250 μg/mL and incubated at 4° C. for 1 hour. The biotin labeling reaction was terminated by treatment with 50 mM Tris-HCl. After collecting cells, a lysis buffer (50 mM Tris-HCl, 150 mM NaCl, 1% NP-40, phosphatase inhibitor, and protease inhibitor) was added, and all the cells were broken through sonication. Cell membrane proteins were isolated by performing immunoprecipitation experiments using anti-biotin antibodies. TβRII in the isolated membrane protein sample was measured using Western blotting. The optical density of TβRII was compared to that of GAPDH using a densitometer.

Test [3] relates to TβRII. Nature of the test: TβRII protein in human hair germinal matrix cells deficient in endogenous HA (4-MU). The format is cell-based. The conditions noted are these: 4-MU-treated cells; HAPLN1 25 ng/mL; TGF-β2 2 ng/mL. As to the method: 4-MU (4-methylumbelliferone) is an inhibitor of HA-producing hyaluronan synthase 2 (HAS2), which produces HA. In order to confirm the effect of HA produced in cells, HA production in cells was inhibited using 4-MU.
The human hair germinal matrix cells, in which the endogenous HA was inhibited by treating 4-MU, were dispensed into a poly-D-lysine 6-well plate at a concentration of 5.0×10^4 per well and cultured for 24 hours. After 24 hours, the medium was removed and replaced with a new serum-free medium. HAPLN1 was treated with 25 ng/mL, and after 1 hour, TGF-β2 (2 ng/mL) was treated. After 23 hours, cells were collected, a lysis buffer (25 mM Tris-HCl, 1 mM EDTA, 0.1% Triton-X100, phosphatase inhibitor, and protease inhibitor) was added, and all the cells were broken through sonication. HAS2 and TβRII in the sample were measured using Western blotting. The optical density of each of HAS2 and TβRII was compared to that of GAPDH using a densitometer.

Another test has as its system hair growth cycle. Nature of the test: Intraperitoneal systemic administration of HAPLN1, mouse hair growth. In kind it is in vivo. To be noted: 20-month-old C57 mice; 0.1 mg/kg intraperitoneally once every 3 days. Here is the method:
HAPLN1 in the body decreases with age. HAPLN1 was administered to 20-month-old C57 mice with a decrease in HAPLN1 in the body.
Since C57 mice had different hair growth cycles, the cycles of all mice were uniformly adjusted through two hair growth cycles (see the schedule of FIG. 19). Thereafter, HAPLN1 was injected intraperitoneally at 0.1 mg/kg once every 3 days.

The subject of another test is p-ERK1/2. Nature of the test: p-ERK1/2 in human hair germinal matrix cells stimulated with TGF-β2 (Western blotting). In kind it is cell-based. To be noted: TGF-β2 2 ng/mL, 1 hour. As to the method: as §1

B1: hyaluronan and proteoglycan link protein 1 (protein, UniProt P10915 16-354, looked up)
Hyaluronan and proteoglycan …: DHLSDNYTLDHDRAIHIQAENGPHLLVEAEQAKVFSHRGGNVTLPCKFYRDPTAFGSGIHKIRIKWTKLTSDYLKEVDVFVSMGYHKKTYGGYQGRVFLKGGSDSDASLVITDLTLEDYGRYKCEVIEGLEDDTVVVALDLQGVVFPYFPRLGRYNLNFHEAQQACLDQDAVIASFDQLYDAWRGGLDWCNAGWLSDGSVQYPITKPREPCGGQNTVPGVRNYGFWDKDKSRYDVFCFTSNFNGRFYYLIHPTKLTYDEAVQACLNDGAQIAKVGQIFAAWKILGYDRCDAGWLADGSVRYPISRPRRRCSPTEAAVRFVGFPDKKHKLYGVYCFRAYN
notes: extracellular matrix protein found in cartilage; stabilizes aggregates of hyaluronic acid and proteoglycans
B1: the “cell proliferation (absorbance at 450 nm) compared to the control group” value in test [1] is on record as “promoted”. Also, the “phosphorylation of Smad2” value with p-Smad2 is reported as “no change”. The “TβRII protein (optical density compared to GAPDH)” value in the test on TβRII [2] is on record as “increased”. In addition, in the test on TβRI, the “concentration of TβRI” value is “no change”. In addition, in the test with cell membrane TβRII, the “cell membrane TβRII protein concentration” value is reported as “increased”. Besides, in the test on TβRII [3], the TβRII level result was “recovered”. For the same molecule, in the test on hair growth cycle, the “entry into the anagen phase” value is recorded as “entered the anagen phase in a short period of time”. Moreover, the “ERK1/2 signaling (p-ERK1/2 compared to ERK1/2)” value with p-ERK1/2 (HAPLN1 25 ng/mL and/or HA 25 μg/mL, 23 hours) is recorded as “activated”. For the same molecule, the “ERK1/2 signaling, HAPLN1 treated together with HA” value in the test with p-ERK1/2 (HAPLN1 25 ng/mL with HA 25 μg/mL) is listed as “enhanced the activation of ERK1/2 signaling of HA”.

For the origin of these results see patent publication US20220202899A1, “COMPOSITION FOR PREVENTION OR TREATMENT OF HAIR LOSS INCLUDING HAPLN1” (HAPLNSCIENCE INC., priority 2019, published 2022).
